The source of these data is patent publication US20220380782A1.

The target of experiment [1] is mAID-EGFP-NLS (arabidopsis).
The target in experiment [2] is mAID-EGFP-NLS (arabidopsis). This is another data set of the same source.
For experiment [3], the target named is RAD21-mAID-Clover (human; arabidopsis) (UniProt O60216).
For experiment [4], the target named is mAID-EGFP-NLS (arabidopsis). This is another data set of the same source.

Like-named read-outs stand apart in the source and are kept apart here.

Sequence of RAD21-mAID-Clover (human; arabidopsis) (O60216 other isoform, or with tags, fused parts or gaps): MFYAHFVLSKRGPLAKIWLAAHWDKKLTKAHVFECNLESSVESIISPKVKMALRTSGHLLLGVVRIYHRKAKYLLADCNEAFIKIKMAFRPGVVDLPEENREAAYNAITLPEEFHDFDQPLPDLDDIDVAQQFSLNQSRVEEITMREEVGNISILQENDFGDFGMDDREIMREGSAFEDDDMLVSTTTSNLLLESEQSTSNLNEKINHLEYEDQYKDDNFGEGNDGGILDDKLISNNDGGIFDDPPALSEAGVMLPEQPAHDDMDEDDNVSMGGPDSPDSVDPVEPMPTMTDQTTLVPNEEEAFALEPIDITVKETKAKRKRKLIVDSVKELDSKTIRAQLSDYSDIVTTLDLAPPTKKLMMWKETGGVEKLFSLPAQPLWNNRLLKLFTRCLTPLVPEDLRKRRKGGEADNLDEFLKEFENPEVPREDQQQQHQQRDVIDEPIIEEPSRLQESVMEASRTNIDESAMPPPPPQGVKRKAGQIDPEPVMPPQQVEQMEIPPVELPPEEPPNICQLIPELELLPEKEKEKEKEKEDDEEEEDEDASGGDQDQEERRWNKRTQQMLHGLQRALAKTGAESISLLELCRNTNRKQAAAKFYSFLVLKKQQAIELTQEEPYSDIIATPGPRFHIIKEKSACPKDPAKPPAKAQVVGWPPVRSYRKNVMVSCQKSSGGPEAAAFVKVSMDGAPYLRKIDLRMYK
Sequence of OsTIR1(WT) (receptor) (chain): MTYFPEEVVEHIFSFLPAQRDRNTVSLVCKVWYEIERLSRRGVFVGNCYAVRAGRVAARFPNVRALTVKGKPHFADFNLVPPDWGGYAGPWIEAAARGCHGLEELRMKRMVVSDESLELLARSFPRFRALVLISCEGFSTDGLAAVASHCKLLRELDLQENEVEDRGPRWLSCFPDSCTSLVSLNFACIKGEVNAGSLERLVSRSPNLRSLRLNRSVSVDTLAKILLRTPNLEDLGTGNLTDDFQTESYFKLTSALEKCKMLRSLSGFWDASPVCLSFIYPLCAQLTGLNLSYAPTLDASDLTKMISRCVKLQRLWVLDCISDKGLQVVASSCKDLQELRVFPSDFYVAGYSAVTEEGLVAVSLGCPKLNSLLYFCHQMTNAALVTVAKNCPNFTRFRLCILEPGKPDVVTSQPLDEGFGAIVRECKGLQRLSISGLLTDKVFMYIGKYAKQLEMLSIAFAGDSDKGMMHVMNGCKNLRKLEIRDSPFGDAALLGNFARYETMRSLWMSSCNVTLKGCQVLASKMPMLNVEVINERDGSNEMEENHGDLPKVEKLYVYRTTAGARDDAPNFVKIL
Sequence of OsTIR1(WT) (chain): as above

In experiment [1], OsTIR1(F74G) (receptor) gave a DC 50 (concentration of 5-Ph-IAA for 50% degradation of the reporter) of 0.00045 µM. In experiment [2], the half-life of the reporter after ligand addition (time course) came out at 62.3 min. In addition, the T1/2 of RAD21-mAC after the addition of a ligand in experiment [3] turned out to be 11.7 min.
In turn, OsTIR1(WT) registered a T1/2 of RAD21-mAC after the addition of a ligand in experiment [3] of 26.5 min.
The substance OsTIR1(WT) (receptor) gave a DC 50 (concentration of IAA (auxin) for 50% degradation of the reporter) in experiment [1] of 0.3 µM. In experiment [4], the half-life of the reporter after ligand addition (time course) is 147 min.
